According to article PMC3781043, “A Transcript Profiling Approach Reveals an Abscisic Acid-Specific Glycosyltransferase (UGT73C14) Induced in Developing Fiber of Ligon lintless-2 Mutant of Cotton (Gossypium hirsutum L.)” (PLoS ONE, 2013):

Tests used:
[1] = substrate: CC1=CC(=O)CC(C)(C)[C@@]1(O)/C=C/C(C)=C/C(=O)O; experiment: HPLC-MS of ABA glucoside formed, hyperbolic regression; assay type: biochemical, Gossypium hirsutum; conditions: 2.5 mM UDP-glucose as sugar donor, 50 mM MgCl2, 500 µM ATP, 50 mM Tris-HCl pH 8.0, 30°C
Excerpt: (§1) HPLC-MS of ABA glucoside formed, hyperbolic regression on UGT73C14

[2] = substrate: CC1=CC(=O)CC(C)(C)[C@@]1(O)/C=C/C(C)=C\C(=O)O; experiment: as above; assay type: biochemical, Gossypium hirsutum; conditions: 2.5 mM UDP-glucose as sugar donor, 50 mM MgCl2, 500 µM ATP, 50 mM Tris-HCl pH 8.0, 30°C
Excerpt: as §1

B1: UGT73C14 (Gossypium hirsutum) (protein)
chain: AQGHFVLIPFMAQGHLIPMVDIGRLLAQRGVTVTIVTTPYNAGRVQKSVARAIESGLPIRLLQLQFPGKEVGLIDGVENIDMLHSMEDLIKFVSAANKMEEAMLKLFEKLTPRPNCIISDINLFYTRKIASKFQVPKISFHGFCCFCLLCLRNIQSSKINETVTSDSEYFTVPGLTDKVEFTRVQLPLDNDGSWKEIFEPMWEADRASYGVVINTFEELESAYVKEYRKEKKAWCIGPVSLSHKDELDMAERGNKTSIDGQKCLKWLDSQQPGSVIYACLGSIGTIKCPELIELGLGLEASNKPFIWVLRGNNPTASEVYKWIRRNEFEERTKGRGLVVVGWAPQVLILSHPAIGGFLTHCGWNSIIEGISAGVPLITFPFMGDQFCNEKLAVQILKIGVNLGANKPTMLGDEKSGFILNTEHVKNAIDKLMEQGNEGKEMRKRAKELGDEANKAVEVGGSSYMNITLLIQDILQQSQEMR
notes: about 99 kDa
Protein B1 has a Km [1] of 98.1 µM, a Vmax [1] of 82.9 µmol/min and a kcat [1] of 2.7 s⁻¹. For the same protein, the kcat/Km [1] was 27100 M⁻¹ s⁻¹, the Km [2] was 61.7 µM and the Vmax [2] was 221 µmol/min. It also gave a kcat [2] of 7.2 s⁻¹ and a kcat/Km [2] of 115000 M⁻¹ s⁻¹.
